Results on two molecules are retold here after patent US20260273048A1, “METHODS OF IMPROVING TRANSPLANT SURVIVAL USING IL-2 RECEPTOR GAMMA CHAIN ANTIBODIES” (Regeneron Pharmaceuticals, Inc., priority 2023, published 2026).

Assay [1] deals with BALB/cJ tail skin graft on VG mice humanized for IL2RG. Kind of assay: In vivo skin graft rejection model, REGN7257 with MMF (Example 4). More on the design: species or system mouse. The note with it: REGN7257 25 mg/kg s.c. 2 times per week from 2 days prior to transplant; MMF 100 mg/kg i.p. daily from day of transplant; until rejection; FIG. 9. An excerpt: (§1) BALB/cJ mice obtained from The Jackson Laboratory (Bar Harbor, ME) were used as skin graft donors, and MHC mismatched Velocigene® (VG) background mice (C57BL/6NTac (75%)/129S6SvEvTac (25%)) from the Regeneron Velocigene® breeding colony that were genetically modified to replace the endogenous IL2RG ectodomain with the corresponding human sequences were used as recipients. The skin graft was obtained from the tail of the donor mice. The skin was the peeled off using forceps and punched with a 10 mm diameter biopsy punch.
REGN7257 was administered subcutaneously at doses of 25 mg/kg at a frequency of 2 times per week starting 2 days prior to transplant, and continuing until rejection. MMF was administered intraperitoneally daily at a dose 100 mg/kg starting on the day of transplant, and continuing until rejection. Recipients with the surgical site shaved were anesthetized by isoflurane via a nose cone and administered an analgesic (buprenorphine-sustained release) (ZooPharm). The shaved dorsal area was swabbed with applications of povidone-iodine and alcohol. The graft bed was created midway laterally between the dorsal and ventral sides of the mouse by pinching skin with forceps followed by skin excision utilizing a sterile 10 mm diameter biopsy skin punch. […]

Assay [2] shares this test system. The assay can be described thus: In vivo skin graft rejection model, REGN7257 monotherapy (Example 1). More on the design: species or system mouse. Conditions: 25 mg/kg s.c. 2 times per week starting 3 weeks prior to transplant until rejection.
From the text: as §1
As detailed in Table 2 below, VG mice (humanized for IL2RG), used as graft recipients, were administered no treatment (negative control), an isotype control (REGN1945), or REGN7257 subcutaneously at doses 25 mg/kg at a frequency of 2 times per week starting 3 weeks prior to transplant, and continuing until rejection (FIG. 1). […]
These grafts will display scabbing and contraction several […] from bandage removal. […] The complete rejection timepoint is recorded as the first day where 100% of the graft tissue was necrotic. Rejection onset was recorded as the first day where there were signs of rejection (i.e., redness). Significance was determined by Log-rank (Mantel-Cox) test with Bonferroni correction (adjusted p value 0.00555, K=9).

Assay [3] deals with donor-specific antibodies (total IgG binding to CT26.WT cells). The assay can be described thus: Detection of donor specific antibodies by flow cytometry (Example 1). The class given is in vivo, mouse. Conditions: blood sampled day 56 post-transplant; MFI at 1/512 serum dilution; FIG. 3. On the procedure:
Detection of donor specific antibodies by flow cytometry: Blood was sampled at the day 56 post-transplant timepoint to assess formation of donor-specific antibodies. CT26.WT (ATCC® CRL-2638™) cells were cultured in tissue culture flasks to 80% confluent. Cells were washed with 1×DPBS and dissociated with TrypLE Express reagent (Gibco) by incubating at room temperature for 5 minutes and washing flask with complete RPMI 1640 media. Cells were then centrifuged (500 g, 10 minutes), and resuspended at 5 million cells/ml with 1×DPBS with 1:50 dilution of 4 μg/mL of Fc block (Tonbo) for 15 minutes at room temperature. The suspension was plated at 250,000 cells/well (50 μL) in a 384 well V-bottom plate.
50 μL of serially diluted sample serum from transplanted mice and from non-engrafted wild type VG mouse (C57BL/6NTac (75%)/129S6SvEvTac (25%)) and wild type BALB/cJ mouse obtained from The Jackson Laboratory was added to its respective well and incubated at 37° C. for 45 minutes. Following 2 washes with MACS buffer (500 g, 4 minutes), the cells were resuspended in 50 μL of LIVE/DEAD™ Fixable Blue Dead Cell Stain Kit (Invitrogen) diluted 1:500 in 1×DPBS at 50 μL total volume per well and incubated at room temperature for 15 minutes. […] Acquired events were analyzed with FlowJo (BD). […]

The test system of assay [4] is BALB/cJ tail skin graft on VG mice humanized for IL2RG. The assay can be described thus: In vivo skin graft rejection model, REGN7257 induction with abatacept maintenance (Example 2). Conditions: induction: 2 doses 25 mg/kg s.c. (2 days prior and day of transplant); maintenance: 25 mg/kg s.c. 2 times per week from day of transplant until rejection; FIG. 5. More on the design: species or system mouse.
Method: (2) “Scabbing” and contraction of the graft at later times was used as indicators of graft rejection. The complete rejection timepoint is recorded as the first day where 100% of the graft tissue was necrotic. Significance was determined by Log-rank (Mantel-Cox) test with Bonferroni correction (α=0.005, k=10).

Turning to `COc1c(C)c2c(c(O)c1C/C=C(\C)CCC(=O)OCCN1CCOCC1)C(=O)OC2` [MMF, mycophenolate mofetil, reference compound], in assay [1], the “Median Survival Time [MST] of skin graft” value is on record as 10.

B1: REGN7257: fully human IL-2Rγ antibody comprising the HCVR of SEQ ID NO: 1 and the LCVR of SEQ ID NO:5 (antibody, V domains shown)
VH: EVQLVESGGGLVQPGGSLRLSCAASGFIFSSYEMHWVRQAPGKGLEWISYISSSGTTIYYADSVKGRFTISRDNAKNSLYLHMNSLRAEDTAVYYCTRARITGTFDVFDIWGQGTMVTVSS
VL: DIQMTQSPSSLSASVGDRVTITCRASQSISSYLNWYQQKPGKAPKLLIFAASNLQSGVPSRFSGSRSGTDFTLTISSLQPEDFATYYCQQNYNIPYTFGQGTKLEIK
As for B1, the “overall skin graft survival (time to complete rejection)” value in assay [2] (FIG. 2B) was “improved”. For the same molecule, the “onset of skin graft rejection” value in assay [2] (vs no mAb and isotype control, FIG. 2A) is listed as “delayed”. In assay [3], the “generation of donor-specific antibodies” value is listed as “prevented”. For the same molecule, the “skin graft median survival time [MST] (time to complete skin graft rejection)” value in assay [4] amounted to 11 days. Further, the “Median Survival Time [MST] of skin graft” value in assay [1] came to 12.
